Assay [1] addresses T1, extracellular domain of mouse IL23R (mIL23R ECD) (mouse, UniProt Q8K4B4 24-374).
T1 construct: The immunogen was an ECD-human IgG1 hinge-Fc fusion
T1 sequence: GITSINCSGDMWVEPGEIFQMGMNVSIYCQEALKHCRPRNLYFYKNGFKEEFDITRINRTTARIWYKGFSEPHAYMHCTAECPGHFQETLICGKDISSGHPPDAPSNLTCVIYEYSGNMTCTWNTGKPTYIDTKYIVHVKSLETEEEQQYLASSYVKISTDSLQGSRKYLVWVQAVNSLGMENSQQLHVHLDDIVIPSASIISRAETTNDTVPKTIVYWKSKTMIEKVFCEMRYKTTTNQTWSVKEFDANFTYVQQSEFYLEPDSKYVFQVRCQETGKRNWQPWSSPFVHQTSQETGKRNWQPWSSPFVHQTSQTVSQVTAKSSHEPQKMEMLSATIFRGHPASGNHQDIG
As to the kind of experiment: periplasmic extract ELISA (PE-ELISA) of phage clones, colorimetric. The method, boiled down: (§1)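 VHH domains came from camels immunized in sequence with human and mouse receptor extracellular domain–human IgG1 hinge–Fc fusion proteins. Blood RNA was transcribed, and the approximately 400 bp VHH fragment was cloned in frame with a his-tag into a phagemid in E. coli. The phage library went through multiple rounds of biopanning on the human or mouse extracellular domain. Individual clones were tested by periplasmic extract ELISA in 96-well plates, with selective binding read colorimetrically.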
(In general: In an ELISA, binding on a coated surface is turned into a signal by an enzyme label.)

For assay [2], the target named is T2, extracellular domain of human IL12RB1 (hIL12Rb1 ECD) (human, UniProt P42701 24-545).
T2 construct: The immunogen was a fusion of the ECD with the human IgG1 hinge and Fc; also called IL12Rβ1; CD212
The description is as above. An outline of the steps:
as §1

Where a chain is given by its changes, count along the chain named.

B1: mIL23R VHH4 (VHH)
VHH: QVQLQESGGGSVQAGGSLRLSCAASGYTYSNNCMGWFRQAPGKDRERIANIYTGGGRTTYADSVKGRFTISQDSAKSTVYLQMNSLKPEDTAMYYCAAGSCGSARSEYSYWGQGTQVTVSS
notes: Phagemid clone with his-tag, periplasmic extract
As for B1, the binding result in assay [1] is recorded as “binds”.

B2: hIL12Rb1_VHH1 (VHH)
VHH: QVQLQESGGGSVQAGGSLRLSCVASGYGYCGYDMSWYRQAPGKEREFVALITSDRSISYEDSVKARFIISRDNAANTGYLDMTRLTPDDTAIYYCKTSAAARESSWCRSRYRVASWGQGTQVTVSS
notes: as for B1
With B2, the binding result in assay [2] is listed as “binds”.

B3: mIL23R VHH26 (VHH)
VHH: QVQLQESGGGSVQAGGSLRLSCAASGYTFCMAWFRQAPGKEREGVARFYTRDGYTYYSDSVKGRFTISQNNAKNTLYLQMNSLKSEDTAMYYCAADLTRCSSNKNDFRYWGQGTQVTVSS
notes: as for B1
B3: the binding result in assay [1] was “binds”.

B4: mIL23R VHH24 (VHH)
VHH: B3 VHH with A24V, D59G
notes: as for B1
Turning to B4, the binding result in assay [1] was “binds”.

B5: mIL23R VHH43 (VHH)
VHH: B3 VHH with N70D
notes: as for B1
With B5, in assay [1], the binding result is listed as “binds”.

B6: mIL23R VHH22 (VHH)
VHH: B3 VHH with G53S
notes: as for B1
In the case of B6, the binding result in assay [1] is “binds”.

B7: mIL23R VHH5 (VHH)
VHH: B3 VHH with T98A
notes: as for B1
On to B7, for which the binding result in assay [1] is reported as “binds”.

B8: hIL12Rb1_VHH17 (VHH)
VHH: QVQLQESGGGSVQAGGFLRLSCVASGYGYCGYDMSWYRQVPGKEREFVALITSDRSVSYEDSVKGRFSISRDNAKNTAYLEMNRLTPDDTAIYYCKTSTAARENNWCRSRYRIASWGQGTQVTVSS
notes: as for B1
B8: the binding result in assay [2] is “binds”.

B9: hIL12Rb1_VHH13 (VHH)
VHH: B2 VHH with S17F, D54E, S56V, A65G, I68S, A75E, D81E, T83N
notes: as for B1
For B9, the binding result in assay [2] is “binds”.

B10: hIL12Rb1_VHH5 (VHH)
VHH: B8 VHH with I92V, S115Y
notes: as for B1
On to B10, for which, in assay [2], the binding result is “binds”.

B11: hIL12Rb1_VHH4 (VHH)
VHH: B2 VHH with A40T, S56I, I57A, A65G, A75K, L85V, S104N
notes: as for B1
For the molecule B11, the binding result in assay [2] is given as “binds”.

B12: mIL23R VHH3 (VHH)
VHH: QVQLQESGGGSVQAGGSLRLSCTASVNTYCEYNMSWYRQAPGKEREFVSGVDSDGSTRYSESVKGRFTISQDNAKNTMYLQMNGLKPEDTAMYYCKTYVCTFCSGNSCYYEYKYYYEGQGTQVTVSS
notes: as for B1
With B12, the binding result in assay [1] was “binds”.

B13: mIL23R VHH2 (VHH)
VHH: QVQLQESGGGSVQAGGSLTLSCTAPGFTFRLAAMRWVRQAPGKGLEWVSGIDSRGSTIYADSVKGRFTISKDNAKNTLYLQLNSLKTEDTAMYYCAQGVYGDTYSGSQGTQVTVSS
notes: as for B1
With B13, the binding result in assay [1] is listed as “binds”.

B14: mIL23R VHH46 (VHH)
VHH: B13 VHH with S11L, A14P, T19R, T23A, P25S, A32S, N73D
notes: as for B1
With B14, the binding result in assay [1] is given as “binds”.

B15: mIL23R VHH42 (VHH)
VHH: B13 VHH with S11L, A14P, T19R, T23A, P25S, R30S, L31N, A32Y
notes: as for B1
Take B15: in assay [1], the binding result is reported as “binds”.

B16: mIL23R VHH19 (VHH)
VHH: B13 VHH with S11L, A14P, T19R, T23A, P25S, A32S
notes: as for B1
As to B16, the binding result in assay [1] is listed as “binds”.

B17: mIL23R VHH34 (VHH)
VHH: B13 VHH with S11L, A14P, T19R, T23A, P25S, A32T, Y104H
notes: as for B1
On to B17, for which the binding result in assay [1] was “binds”.

B18: mIL23R VHH45 (VHH)
VHH: B13 VHH with S11L, A14P, T19R, T23A, P25S, A32S, K64E
notes: as for B1
Regarding B18, in assay [1], the binding result is on record as “binds”.

B19: mIL23R VHH44 (VHH)
VHH: B13 VHH with S11L, A14P, T19R, T23A, P25S, A32S, L45F
notes: as for B1
Take B19: in assay [1], the binding result was “binds”.

B20: mIL23R VHH13 (VHH)
VHH: B13 VHH with S11L, A14P, T19R, T23A, A24T, P25S
notes: as for B1
On to B20, for which the binding result in assay [1] was “binds”.

B21: mIL23R VHH23 (VHH)
VHH: B13 VHH with S11L, A14P, T19R, T23A, P25S, T28N, A32Y, L45V, R54G
notes: as for B1
B21: in assay [1], the binding result is reported as “binds”.

B22: mIL23R VHH40 (VHH)
VHH: B13 VHH with S11L, A14P, T19R, T23A, P25S, A32T, T87S
notes: as for B1
Turning to B22, the binding result in assay [1] is listed as “binds”.

B23: mIL23R VHH28 (VHH)
VHH: B13 VHH with S11L, A14P, T19R, T23A, P25S, A32T, K71R, T90A
notes: as for B1
Consider B23, for which the binding result in assay [1] is “binds”.

B24: mIL23R VHH30 (VHH)
VHH: B13 VHH with S11L, A14P, T19R, T23A, P25S, A32T, Q108L
notes: as for B1
As for B24, the binding result in assay [1] is on record as “binds”.

B25: mIL23R VHH17 (VHH)
VHH: B13 VHH with T19R, T23A, P25S, A32T
notes: as for B1
For the molecule B25, in assay [1], the binding result is “binds”.

B26: mIL23R VHH31 (VHH)
VHH: B13 VHH with S11L, A14P, T19R, T23A, P25S, A32T, K71R
notes: as for B1
For the molecule B26, the binding result in assay [1] was “binds”.

B27: mIL23R VHH9 (VHH)
VHH: B13 VHH with S11L, A14P, T19R, T23A, A24T, P25S, A32T, L45V, R54A, L82M
notes: as for B1
Turning to B27, in assay [1], the binding result is reported as “binds”.

B28: mIL23R VHH6 (VHH)
VHH: QVQLQESGGGSVQAGGSLRLSCAASGYTSGNYWMGWFRQAPGKEREGVATLWTGGASTFYGDSVKGRFTISRDNFKNTLYLQMNSLKVEDTAMYYCAADPALRLGANILRPAEYKYWGQGTQVTVSS
notes: as for B1
In the case of B28, the binding result in assay [1] is recorded as “binds”.

B29: hIL12Rb1_VHH22 (VHH)
VHH: QVQLQESGGGSVQAGGSLRLSCTASGYTYSSAFMAWFRQAPGKEREGVAAIYTRDGGTVYADSVKGRFTISQDNAKNTLYLQMNSLKAEDTAMYYCAAKIPQPGRASLLDSQTYDYWGQGTQVTVSS
notes: as for B1
For B29, the binding result in assay [2] is recorded as “binds”.

B30: hIL12Rb1_VHH12 (VHH)
VHH: B29 VHH with A88P, I100M
notes: as for B1
Turning to B30, the binding result in assay [2] is listed as “binds”.

B31: hIL12Rb1_VHH21 (VHH)
VHH: B29 VHH with I51M, A88T
notes: as for B1
For the molecule B31, the binding result in assay [2] is reported as “binds”.

B32: hIL12Rb1_VHH2 (VHH)
VHH: B29 VHH with T78I
notes: as for B1
With B32, the binding result in assay [2] is “binds”.

B33: hIL12Rb1_VHH20 (VHH)
VHH: B29 VHH with G57S, T58P, V64L, Y80H, A88P, Q102E, A106I, Q119H
notes: as for B1
Consider B33, for which, in assay [2], the binding result was “binds”.

B34: hIL12Rb1_VHH16 (VHH)
VHH: B29 VHH with I51M, M83I, N84H, S85T
notes: as for B1
With B34, the binding result in assay [2] was “binds”.

B35: hIL12Rb1_VHH10 (VHH)
VHH: QVQLQESGGGSVQAGGSLRLSCAVSGYDYCGYDVRWYRQAPGKEREFVSGIDSDGSTSYADSVKGRFTISQDNAENTSYLHMFSLKPEDTAMYYCKTESPAGESAWCRNFRGMDYWGKGTQVTVSS
notes: as for B1
Consider B35, for which the binding result in assay [2] is listed as “binds”.

B36: hIL12Rb1_VHH11 (VHH)
VHH: B35 VHH
notes: as for B1
On to B36, for which the binding result in assay [2] was “binds”.

B37: hIL12Rb1_VHH7 (VHH)
VHH: B35 VHH with Q39R
notes: as for B1
For the molecule B37, the binding result in assay [2] is reported as “binds”.

B38: hIL12Rb1_VHH14 (VHH)
VHH: B35 VHH with Q39R
notes: as for B1
B38: in assay [2], the binding result is listed as “binds”.

B39: hIL12Rb1_VHH19 (VHH)
VHH: B35 VHH with D52N, S99G
notes: as for B1
Take B39: the binding result in assay [2] was “binds”.

B40: hIL12Rb1_VHH15 (VHH)
VHH: B35 VHH with D52N
notes: as for B1
As for B40, the binding result in assay [2] was “binds”.

The record behind these values is US20230279126A1 (published 2023).
